Here are results for six molecules from patent publication US20260295010 (published 2026).

Common to all, as to experiment: SPR, 25C
Assay [1] concerns the target T1, IL-12RB1-hFc (human, UniProt P42701).
Assay [2] deals with T2, IL-12RB2-hFc (human, UniProt Q99665).
T2 chain: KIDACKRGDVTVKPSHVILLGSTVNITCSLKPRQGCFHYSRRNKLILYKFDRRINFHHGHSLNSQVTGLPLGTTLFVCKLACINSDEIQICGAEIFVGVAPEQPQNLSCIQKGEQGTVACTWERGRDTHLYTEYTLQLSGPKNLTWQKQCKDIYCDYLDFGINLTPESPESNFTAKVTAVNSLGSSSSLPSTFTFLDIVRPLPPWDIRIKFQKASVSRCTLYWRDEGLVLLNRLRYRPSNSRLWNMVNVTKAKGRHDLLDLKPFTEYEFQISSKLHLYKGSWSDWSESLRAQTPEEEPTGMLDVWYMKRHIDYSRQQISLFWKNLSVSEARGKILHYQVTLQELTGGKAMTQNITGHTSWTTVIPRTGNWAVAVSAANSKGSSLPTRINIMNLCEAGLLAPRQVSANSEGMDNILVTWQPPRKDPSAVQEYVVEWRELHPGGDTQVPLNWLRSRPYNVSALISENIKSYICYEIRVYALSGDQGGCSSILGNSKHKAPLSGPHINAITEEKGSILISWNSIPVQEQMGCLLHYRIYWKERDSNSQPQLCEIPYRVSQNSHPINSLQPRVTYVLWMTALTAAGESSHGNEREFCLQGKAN

Assay [3] has as its target T1, IL-12RB1-hFc. The source holds these as a separate data set.
For assay [4], the target named is T2, IL-12RB2-hFc.
Assay [5] has as its target T1, IL-12RB1-hFc. This is another data set of the same source.

Like-named read-outs stand apart in the source and are kept apart here.

B1: IL-12p70 K105E (protein)
chain 1: MIWELKKDVYVVELDWYPDAPGEMVVLTCDTPEEDGITWTLDQSSEVLGSGKTLTIQVKEFGDAGQYTCHKGGEVLSHSLLLLHKKEDGIWSTDILKDQKEPKNETFLRCEAKNYSGRFTCWWLTTISTDLTFSVKSSRGSSDPQGVTCGAATLSAERVRGDNKEYEYSVECQEDSACPAAEESLPIEVMVDAVHKLKYENYTSSFFIRDIIKPDPPKNLQLKPLKNSRQVEVSWEYPDTWSTPHSYFSLTFSVQVQGKSKREKKDRVFTDKTSATVICRKNASISVRAQDRYYSSSWSEWASVPCSGGGSHHHHHH
chain 2: MRNLPVATPDPGMFPSLHHSQNLLRAVSNMLQKARQTLEFYPCTSEEIDHEDITKDKTSTVEACLPLELTKNESCLNSRETSFITNGSSLASRKTSFMMALCLSSIYEDLKMYQVEFKTMNAKLLMDPKRQIFLDQNMLAVIDELMQALNFNSETVPQKSSLEEPDFYKTKIKLCILLHAFRIRAVTIDRVMSYLNAS
As usually defined, the Kd is the concentration at which binding is half-saturated. Low readings indicate tighter binding, high ones weaker binding. For B1, the dissociation constant Kd with IL-12RB1-hFc [1] is 0.5 nM; in the assay with IL-12RB2-hFc [2] it was 1.1 nM; in the assay with IL-12RB1-hFc [3], 0.13 nM; in the assay with IL-12RB2-hFc [4] it was 0.56 nM.

B2: IL-12p70 D94K (protein)
chain 1: MIWELKKDVYVVELDWYPDAPGEMVVLTCDTPEEDGITWTLDQSSEVLGSGKTLTIQVKEFGDAGQYTCHKGGEVLSHSLLLLHKKEDGIWSTKILKDQKEPKNKTFLRCEAKNYSGRFTCWWLTTISTDLTFSVKSSRGSSDPQGVTCGAATLSAERVRGDNKEYEYSVECQEDSACPAAEESLPIEVMVDAVHKLKYENYTSSFFIRDIIKPDPPKNLQLKPLKNSRQVEVSWEYPDTWSTPHSYFSLTFSVQVQGKSKREKKDRVFTDKTSATVICRKNASISVRAQDRYYSSSWSEWASVPCSGGGSHHHHHH
chain 2: MRNLPVATPDPGMFPSLHHSQNLLRAVSNMLQKARQTLEFYPCTSEEIDHEDITKDKTSTVEACLPLELTKNESCLNSRETSFITNGSSLASRKTSFMMALCLSSIYEDLKMYQVEFKTMNAKLLMDPKRQIFLDQNMLAVIDELMQALNFNSETVPQKSSLEEPDFYKTKIKLCILLHAFRIRAVTIDRVMSYLNAS
On to B2, for which the dissociation constant Kd was found to be 0.44 nM with IL-12RB1-hFc [1], 1.9 nM in the assay with IL-12RB2-hFc [2], 0.75 nM with IL-12RB1-hFc [3] and 1.2 nM with IL-12RB2-hFc [4].

B3: IL-12p70 E87K,K196E,K198E (protein)
chain 1: MIWELKKDVYVVELDWYPDAPGEMVVLTCDTPEEDGITWTLDQSSEVLGSGKTLTIQVKEFGDAGQYTCHKGGEVLSHSLLLLHKKKDGIWSTDILKDQKEPKNKTFLRCEAKNYSGRFTCWWLTTISTDLTFSVKSSRGSSDPQGVTCGAATLSAERVRGDNKEYEYSVECQEDSACPAAEESLPIEVMVDAVHELEYENYTSSFFIRDIIKPDPPKNLQLKPLKNSRQVEVSWEYPDTWSTPHSYFSLTFSVQVQGKSKREKKDRVFTDKTSATVICRKNASISVRAQDRYYSSSWSEWASVPCSGGGSHHHHHH
chain 2: MRNLPVATPDPGMFPSLHHSQNLLRAVSNMLQKARQTLEFYPCTSEEIDHEDITKDKTSTVEACLPLELTKNESCLNSRETSFITNGSSLASRKTSFMMALCLSSIYEDLKMYQVEFKTMNAKLLMDPKRQIFLDQNMLAVIDELMQALNFNSETVPQKSSLEEPDFYKTKIKLCILLHAFRIRAVTIDRVMSYLNAS
What is called koff is the rate constant with which the complex falls apart. Read a low koff as slow dissociation. B3: the koff with IL-12RB1-hFc [5] came to 0.0705 s⁻¹. This molecule also registered a Kd with IL-12RB2-hFc [4] of 0.61 nM.

B4: IL-12p70 K196E (protein)
chain 1: MIWELKKDVYVVELDWYPDAPGEMVVLTCDTPEEDGITWTLDQSSEVLGSGKTLTIQVKEFGDAGQYTCHKGGEVLSHSLLLLHKKEDGIWSTDILKDQKEPKNKTFLRCEAKNYSGRFTCWWLTTISTDLTFSVKSSRGSSDPQGVTCGAATLSAERVRGDNKEYEYSVECQEDSACPAAEESLPIEVMVDAVHELKYENYTSSFFIRDIIKPDPPKNLQLKPLKNSRQVEVSWEYPDTWSTPHSYFSLTFSVQVQGKSKREKKDRVFTDKTSATVICRKNASISVRAQDRYYSSSWSEWASVPCSGGGSHHHHHH
chain 2: MRNLPVATPDPGMFPSLHHSQNLLRAVSNMLQKARQTLEFYPCTSEEIDHEDITKDKTSTVEACLPLELTKNESCLNSRETSFITNGSSLASRKTSFMMALCLSSIYEDLKMYQVEFKTMNAKLLMDPKRQIFLDQNMLAVIDELMQALNFNSETVPQKSSLEEPDFYKTKIKLCILLHAFRIRAVTIDRVMSYLNAS
In the case of B4, the Kd with IL-12RB1-hFc [1] stood at 0.7 nM; in the assay with IL-12RB2-hFc [2], 2.7 nM; with IL-12RB1-hFc [3] it was 0.15 nM; with IL-12RB2-hFc [4] it was 0.42 nM.

B5: IL-12p70 L197A (protein)
chain 1: MIWELKKDVYVVELDWYPDAPGEMVVLTCDTPEEDGITWTLDQSSEVLGSGKTLTIQVKEFGDAGQYTCHKGGEVLSHSLLLLHKKEDGIWSTDILKDQKEPKNKTFLRCEAKNYSGRFTCWWLTTISTDLTFSVKSSRGSSDPQGVTCGAATLSAERVRGDNKEYEYSVECQEDSACPAAEESLPIEVMVDAVHKAKYENYTSSFFIRDIIKPDPPKNLQLKPLKNSRQVEVSWEYPDTWSTPHSYFSLTFSVQVQGKSKREKKDRVFTDKTSATVICRKNASISVRAQDRYYSSSWSEWASVPCSGGGSHHHHHH
chain 2: MRNLPVATPDPGMFPSLHHSQNLLRAVSNMLQKARQTLEFYPCTSEEIDHEDITKDKTSTVEACLPLELTKNESCLNSRETSFITNGSSLASRKTSFMMALCLSSIYEDLKMYQVEFKTMNAKLLMDPKRQIFLDQNMLAVIDELMQALNFNSETVPQKSSLEEPDFYKTKIKLCILLHAFRIRAVTIDRVMSYLNAS
Take B5: the dissociation constant (Kd) with IL-12RB1-hFc [1] stood at 0.31 nM; with IL-12RB2-hFc [2], 2.3 nM; with IL-12RB1-hFc [3], 0.05 nM; with IL-12RB2-hFc [4], 0.55 nM.

B6: IL-12p70 W16A (protein)
chain 1: MIWELKKDVYVVELDAYPDAPGEMVVLTCDTPEEDGITWTLDQSSEVLGSGKTLTIQVKEFGDAGQYTCHKGGEVLSHSLLLLHKKEDGIWSTDILKDQKEPKNKTFLRCEAKNYSGRFTCWWLTTISTDLTFSVKSSRGSSDPQGVTCGAATLSAERVRGDNKEYEYSVECQEDSACPAAEESLPIEVMVDAVHKLKYENYTSSFFIRDIIKPDPPKNLQLKPLKNSRQVEVSWEYPDTWSTPHSYFSLTFSVQVQGKSKREKKDRVFTDKTSATVICRKNASISVRAQDRYYSSSWSEWASVPCSGGGSHHHHHH
chain 2: MRNLPVATPDPGMFPSLHHSQNLLRAVSNMLQKARQTLEFYPCTSEEIDHEDITKDKTSTVEACLPLELTKNESCLNSRETSFITNGSSLASRKTSFMMALCLSSIYEDLKMYQVEFKTMNAKLLMDPKRQIFLDQNMLAVIDELMQALNFNSETVPQKSSLEEPDFYKTKIKLCILLHAFRIRAVTIDRVMSYLNAS
Consider B6, for which the equilibrium dissociation constant (Kd) with IL-12RB2-hFc [2] was determined as 16 nM; with IL-12RB2-hFc [4], 0.62 nM. This molecule also returned an off-rate (koff) with IL-12RB1-hFc [5] of 0.049 s⁻¹.
